Source: patent publication US20230181719A1, “NGR CONJUGATES AND USES THEREOF” (OSPEDALE SAN RAFFAELE S.R.L., priority 2020, published 2023)
Each block holds one molecule with its values, some of them ahead of it. Starred links: 1 amine or outer side, 2 acyl side, 3 side chain; linkers in the order of their positions; H or OH if unused. Positions of bridges follow the written chain, without caps; N, C: chain ends. Non-standard residues stand in square brackets, D forms with d. Residues, ends and D or L forms follow the SMILES beside them. No end group written: not given here. βAsp = O=C(O)[C@H](CC(=O)[*:2])N[*:1]

Key:
[1] = Peptide deamidation stability upon incubation at 37° C., by mass spectrometry; type: physicochemical; conditions: pH 7.4
Method: FIG. 11. The peptide SCNGRCGVRY (SEQ ID NO: 3) has a lower propensity to deamidate than CNGRCGVRY (SEQ ID NO:4) in a physiological buffer at […], but not in ammonium bicarbonate buffer at pH 8.5. A and B) MS analysis of SCNGRCGVRY (SEQ ID NO: 3) and CNGRCGVRY (SEQ ID NO:4) after incubation at 37° C. for the indicated time in 50 mM sodium phosphate buffer, pH 7.4 (PBS) or 0.1 M ammonium bicarbonate buffer, pH 8.5 (Ambic). The values +0, + 1, -17 reported in the plot correspond to the difference between the observed and the expected molecular mass of peptides expressed in daltons. MS analysis was performed using the LTQ-Orbitrap mass spectrometer (Thermo Scientific).
To assess whether the addition of the serine residue to CNGRCG (SEQ ID NO:1) might affect its deamidation propensity inventors synthetized the SCNGRCGVRY (SEQ ID NO: 3) and CNGRCGVRY (SEQ ID NO:4) peptides and studied their stability upon incubation at 37° C. in PBS, pH 7.4, by mass spectrometry.
A similar experiment was then performed with peptides in 0.1 M ammonium bicarbonate, pH 8.5, a condition known to force Asn deamidation (Curnis et al. 2006). […] Furthermore, the succinimide-derivative of S-NGR-TNF, when formed, is more prone to hydrolysis.

L-M cells = experiment: LM-cells cytolytic assay (MTT); type: cell-based; conditions: actinomycin D, 20 h, murine proteins
Text: FIG. 8. Biochemical and biological characterization of murine S-NGR-TNF and NGR-TNF. A) SDS-PAGE under reducing (βMe +) and non-reducing conditions (βMe -) of murine S-NGR-TNF, NGR-TNF and TNF. Arrows: bands corresponding to monomeric subunits (mon) and reducible dimers (dim). B) Representative mass spectra of murine NGR-TNF, TNF and S-NGR-TNF as determined by a Q Exactive HF mass spectrometer. Expected average masses are shown. C) Cytotoxic activity of TNF, NGR-TNF and S-NGR-TNF against L-M cells. L-M cells were incubated in DMEM medium supplemented with 2 mM glutamine, 100 U/ml penicillin, 100 µg/ml streptomycin, 0.25 µg/ml amphotericin-B, 10% fetal bovine serum, 2 µg/ml actinomycin D and TNF, NGR-TNF or S-NGR-TNF at the indicated doses (20 h at 37° C., 5% CO2). Cell viability was quantified by standard 3-(4,5-dimethylthiazol-2-yl)-2,5-diphenyltetrazolium bromide (MTT) assay. D) Binding of TNF, NGR-TNF and S-NGR-TNF to sTNF-R1 (Etanercept). Microtiterplates were precoated with or without the indicated amount of sTNF-R1 (for 16 h), washed with PBS, blocked with PBS containing 3% milk, 1% BSA (binding buffer, 1 h) and incubated with the indicated amounts of TNF, NGR-TNF or S-NGR-TNF diluted in binding buffer (for 1.5 h). The binding of each protein to sTNF-R1 was then detected using a polyclonal anti-murine TNF (IP301, 5 µg/ml in binding buffer, 1 h) followed by a polyclonal goat anti-rabbit antibody conjugated with horseradish peroxidase (1:1000 in binding buffer, 1 h) and o-phenylendiammine as chromogenic substrate.
To assess whether the addition of a serine residue to NGR-TNF affects its capability to recognize the TNF receptors and, consequently, its biological activity, inventors then analyzed the cytotoxic activity of TNF, NGR-TNF and S-NGR-TNF in the LM-cells cytolytic assay.

αvβ3 = αvβ3 (Homo sapiens, UniProt P05106+P06756); experiment: Competitive binding of acetyl-CisoDGRCG/streptavidin-peroxidase to integrin-coated microtiterplates; conditions: αvβ3, αvβ5, αvβ6, αvβ8 and α5β1 (all integrins)
Text: To assess whether the isoDGR derivative of S-NGR-TNF and NGR-TNF targeting domains can recognize integrins with similar affinities inventors then analysed the binding of SCisoDGRCGVRY (SEQ ID NO: 17), CisoDGRCGVRY and acetyl-CisoDGRCGVRY to αvβ3, αvβ5, αvβ6 αvβ8 and α5β1 integrins using a competitive binding assay previously described (Curnis et al. 2010). […] As expected […] (SEQ ID NO: 3) and […] […] Considering that human NGR-TNF contains acetylated and non-acetylated forms and that both CNGRC (SEQ ID NO:5) and acetyl-CNGRC can undergo deamidation (Curnis et al. 2010), inventors can conclude that the isoDGR derivative of S-NGR-TNF, if formed, behave in a manner similar to those of the isoDGR derivatives of NGR-TNF in terms of integrin recognition.

[2] = target: T1, recombinant human histidine-tagged CD13 (human, UniProt P15144 69-967, limits assumed); experiment: CD13 enzyme kinetics inhibition, 60 mM potassium phosphate buffer, pH 7.4
T1 construct: Histidine tag present; also called aminopeptidase N
Text: FIG. 10. The peptide […] (SEQ ID NO: 3) inhibits CD13 enzymatic activity more efficiently than […] (SEQ ID NO:4) and acetylated-[…]. A) Steady state kinetic analysis of CD13 in the presence of various amounts of L-alanine p-nitroanilide substrate and […] (SEQ ID NO: 3), […] (SEQ ID NO:4), or acetylated-[…] (ac-[…]) (SEQ ID NO:42). A representative plot of 3-4 independent experiments, showing the initial velocity (V₀) versus substrate concentration (mean ± SE of four technical replicates), is shown. The assays were performed with recombinant human histidine-tagged CD13 (200-300 ng/ml) in 60 mM potassium phosphate buffer, pH 7.4, at room temperature. The kinetic of p-nitroanilide formation was monitored spectrophotometrically (A405 nm) for 5-10 min. The inhibitory constant (Ki) reported in each plot is the result of the 3-4 independent experiments (mean ± SE). B) Double reciprocal plots of the experiments reported in panel A.
Each experiment was performed with 4 technical replicates

[3] = target: T1, recombinant human histidine-tagged CD13; experiment: CD13 enzyme kinetics inhibition, 50 mM Tris-HCl buffer, pH 7.4
αvβ5 integrin = target: T2, αvβ5 integrin (UniProt P06756 31-992; P18084 24-719, limits assumed); experiment: competitive binding assay, integrin-coated plates; competitor probe acetyl-CisoDGRCG/streptavidin-peroxidase
T2 construct: Coated on microtiter plates
Text: (§1) To assess whether the isoDGR derivative of S-NGR-TNF and NGR-TNF targeting domains can recognize integrins with similar affinities inventors then analysed the binding of SCiso[…] (SEQ ID NO: 17), Ciso[…] and acetyl-Ciso[…] to αvβ3, αvβ5, αvβ6 αvβ8 and α5β1 integrins using a competitive binding assay previously described (Curnis et al. 2010). […] Considering that human NGR-TNF contains acetylated and non-acetylated forms and that both CNGRC (SEQ ID NO:5) and acetyl-CNGRC can undergo deamidation (Curnis et al. 2010), inventors can conclude that the isoDGR derivative of S-NGR-TNF, if formed, behave in a manner similar to those of the isoDGR derivatives of NGR-TNF in terms of integrin recognition.
(§2) a) Competitive binding of acetyl-CisoDGRCG/streptavidin-peroxidase to integrins. The binding assay was performed using integrin-coated microtiterplates as previously described (Curnis et al. 2013). b) n, number of independent experiments, each in duplicate.

αvβ8 integrin = target: T3, αvβ8 integrin (UniProt P06756 31-992; P26012 43-684, limits assumed); experiment: as above
T3 construct: Coated on microtiter plates
Text: as §1, §2

αvβ6 integrin = target: T4, αvβ6 integrin (UniProt P06756 31-992; P18564 22-707, limits assumed); experiment: as above
T4 construct: Coated on microtiter plates
Text: as §1, §2

αvβ3 integrin = target: T5, αvβ3 integrin (UniProt P06756 31-992; P05106 27-718, limits assumed); experiment: as above
T5 construct: Coated on microtiter plates
Text: as §1, §2

α5β1 integrin = target: T6, α5β1 integrin (UniProt P08648 42-995; P05556 21-728, limits assumed); experiment: as above
T6 construct: Coated on microtiter plates
Text: as §1, §2

Molecule: CC(C)[C@H](NC(=O)CNC(=O)[C@@H]1CSSC[C@H](N)C(=O)N[C@@H](CC(N)=O)C(=O)NCC(=O)N[C@@H](CCCNC(=N)N)C(=O)N1)C(=O)N[C@@H](CCCNC(=N)N)C(=O)N[C@@H](Cc1ccc(O)cc1)C(=O)O [CNGRCGVRY, CNGRCGVRY (SEQ ID NO:4), reference compound] (H-CNGRCGVRY-OH; disulfide 1-5 (inferred); N-terminus and C-terminus assumed)
- -17 Da form (succinimide intermediate of deamidation) ([1]; after 2 h at 37° C. in PBS): observed
- +1 Da deamidation product (DGR/isoDGR) ([1]; after 32 h at 37° C. in PBS): observed
- -17 Da form still present ([1]; after 32 h at 37° C. in PBS): a large amount of the -17 Da form was still present

Molecule: TNF: Murine tumor necrosis factor-α (SEQ ID NO: 15) [reference compound]
- EC50 cytotoxic activity (L-M cells): very similar

Molecule: CC(C)[C@H](NC(=O)CNC(=O)[C@@H]1CSSC[C@H](NC(=O)[C@@H](N)CO)C(=O)N[C@@H](CC(=O)O)C(=O)NCC(=O)N[C@@H](CCCNC(=N)N)C(=O)N1)C(=O)N[C@@H](CCCNC(=N)N)C(=O)N[C@@H](Cc1ccc(O)cc1)C(=O)O [SCDGRCGVRY, SCDGRCGVRY (SEQ ID NO:22)] (H-SCDGRCGVRY-OH; disulfide 2-6; N-terminus and C-terminus assumed)
- affinity for integrins (αvβ3): no or very low affinity

B2: CNGRCGVRY peptide (peptide)
peptide: CNGRCGVRY
modifications: disulfide 1-5
notes: Synthetic peptide corresponding to the N-terminal region of human NGR-TNF
- Ki [2]: 76500 nM
- Ki [3]: 35600 nM

B5: SCNGRCGVRY peptide (peptide)
peptide: SCNGRCGVRY
modifications: disulfide 2-6
notes: Synthetic peptide corresponding to the N-terminal region of human S-NGR-TNF
- Ki [2]: 25000 nM
- Ki [3]: 6800 nM
- Ki (αvβ5 integrin): > 10000 nM
- Ki (αvβ8 integrin): > 10000 nM
- Ki (αvβ6 integrin): > 10000 nM
- Ki (αvβ3 integrin): > 10000 nM
- Ki (α5β1 integrin): > 10000 nM

More lines, now with the values ahead:

- Ki [2]: 50700 nM
- Ki [3]: 38100 nM
B1: acetylated-CNGRCGVRY peptide (peptide)
peptide: Ac-CNGRCGVRY
modifications: disulfide 1-5

- Ki (αvβ5 integrin): 21 nM
- Ki (αvβ8 integrin): 18 nM
- Ki (αvβ6 integrin): 5 nM
- Ki (αvβ3 integrin): 3 nM
- Ki (α5β1 integrin): 4 nM
B3: acetyl-CisoDGRCGVRY peptide (peptide)
peptide: Ac-C[βAsp]GRCGVRY
modifications: disulfide 1-5

- Ki (αvβ5 integrin): 391 nM
- Ki (αvβ8 integrin): 554 nM
- Ki (αvβ6 integrin): 131 nM
- Ki (αvβ3 integrin): 11 nM
- Ki (α5β1 integrin): 75 nM
B4: CisoDGRCGVRY peptide (peptide)
peptide: C[βAsp]GRCGVRY
modifications: disulfide 1-5

- Ki (αvβ5 integrin): 779 nM
- Ki (αvβ8 integrin): 21400 nM
- Ki (αvβ6 integrin): 5500 nM
- Ki (αvβ3 integrin): 3340 nM
- Ki (α5β1 integrin): 4790 nM
B6: SCDGRCGVRY peptide (peptide)
peptide: SCDGRCGVRY

- Ki (αvβ5 integrin): 77 nM
- Ki (αvβ8 integrin): 156 nM
- Ki (αvβ6 integrin): 25 nM
- Ki (αvβ3 integrin): 17 nM
- Ki (α5β1 integrin): 11 nM
B7: SCisoDGRCGVRY peptide (peptide)
peptide: SC[βAsp]GRCGVRY
modifications: disulfide 2-6
